The assay has as its target T1, SARS-CoV-2 WT spike (S) protein (SARS-CoV-2 prototype Wuhan-Hu-1 …, UniProt P0DTC2).
T1 construct: source: bought: Sino Biological Inc., purified
Briefly: cryo-EM structure. The conditions noted are these: both partners purified.

B1: Fab fragment of nAb X01 (Fab, V domains shown)
VH: EIQLQQSGPELVAPGASVKVSCKASGYAFTSYNMYWVRQSHGKSLEWIGYIVPYNGGTTYNQEFKGKATLTVDKSSNTAYIHLNSLTSEDSAVYYCAKEGTYYGYDGVLADWGQGTLVT
VL: DIQMTQSSSYLSVSLGGRVTITCKASDHINNWLAWYQQKPGNAPRLLISGVTNLETGVPSRFSGSGSGKNFTLSIASLQTEDVATYYCQQYWSFPWTFGGGTKLEIR
For B1, the binding result is reported as “binds”.

B2: Fab fragment of nAb X10 (Fab, V domains shown)
VH: EVQLQQSGPELVKPGASVKISCKTSGYTFTEYTLHWVKQSHGKSLEWIGGFDPNFGGATYNLKFEDKATLTVDKSSNTAYMELRSLTSEDSAVFYCARGDYGTSYAYFDFWGQGTTLTVSS
VL: DIVLTQSPASLAVSLGQRAAISCRASQSVSTSSHNYVHWYQQRPGQPPKLLIKYASNLECGVPARFSGSGSGTDFTLNIHPVEEEDSAAYYCQHSWEIPYTFGGGTKLEIK
As for B2, the binding result was “binds”.

The values are drawn from article PMC9407403 (Proceedings of the National Academy of Sciences of the …, 2022).
